Experimental data taken from article PMC4526367, “Weak Interactions between Salmonella enterica FlhB and Other Flagellar Export Apparatus Proteins Govern Type III Secretion Dynamics” (PLoS ONE, 2015).
Where two headings read alike, the source gives them in different places.

How the values were obtained:
[1] = target: FlhB cytoplasmic domain (Salmonella enterica) (UniProt P40727); assay: SPR; conditions: cited from earlier work
[2] = target: cytoplasmic domain of FlhA (FlhAC) (UniProt P40729); assay: BLI; FlhAC ligand on streptavidin sensors, FlhBC analyte 2, 1, 0.5, 0.25 and 0.125 uM; HBS-T, 25°C; one-state association fits, global two-state dissociation fit, steady state analysis, kobs vs [FlhBC]
cytoplasmic domain of FlhA (FlhAC), sequence (P40729 whole entry, the tested form may be a part): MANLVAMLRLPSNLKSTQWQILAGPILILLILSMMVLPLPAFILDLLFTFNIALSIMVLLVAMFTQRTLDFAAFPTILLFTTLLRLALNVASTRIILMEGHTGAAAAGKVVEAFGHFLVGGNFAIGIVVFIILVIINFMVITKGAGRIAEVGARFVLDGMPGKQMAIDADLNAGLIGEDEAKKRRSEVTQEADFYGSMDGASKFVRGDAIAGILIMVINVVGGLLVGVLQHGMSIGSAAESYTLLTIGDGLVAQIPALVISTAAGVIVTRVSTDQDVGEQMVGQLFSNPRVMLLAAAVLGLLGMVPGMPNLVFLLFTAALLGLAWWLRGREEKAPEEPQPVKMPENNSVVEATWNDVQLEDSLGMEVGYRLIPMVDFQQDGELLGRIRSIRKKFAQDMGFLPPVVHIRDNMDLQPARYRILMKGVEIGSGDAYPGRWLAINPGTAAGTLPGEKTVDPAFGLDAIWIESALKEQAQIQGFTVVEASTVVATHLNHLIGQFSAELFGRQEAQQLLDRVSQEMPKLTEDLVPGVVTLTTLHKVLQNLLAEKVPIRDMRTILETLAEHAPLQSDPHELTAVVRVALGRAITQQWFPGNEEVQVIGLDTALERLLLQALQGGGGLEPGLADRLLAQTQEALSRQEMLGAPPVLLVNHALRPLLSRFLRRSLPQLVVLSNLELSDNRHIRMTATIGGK

[3] = target: cytoplasmic domain of FlhA (FlhAC) (UniProt P40729); assay: as above; remark: listed apart in the source
FliK = FliK (UniProt P26416); assay: BLI
FliK (UniProt P26416), sequence (P26416 whole entry): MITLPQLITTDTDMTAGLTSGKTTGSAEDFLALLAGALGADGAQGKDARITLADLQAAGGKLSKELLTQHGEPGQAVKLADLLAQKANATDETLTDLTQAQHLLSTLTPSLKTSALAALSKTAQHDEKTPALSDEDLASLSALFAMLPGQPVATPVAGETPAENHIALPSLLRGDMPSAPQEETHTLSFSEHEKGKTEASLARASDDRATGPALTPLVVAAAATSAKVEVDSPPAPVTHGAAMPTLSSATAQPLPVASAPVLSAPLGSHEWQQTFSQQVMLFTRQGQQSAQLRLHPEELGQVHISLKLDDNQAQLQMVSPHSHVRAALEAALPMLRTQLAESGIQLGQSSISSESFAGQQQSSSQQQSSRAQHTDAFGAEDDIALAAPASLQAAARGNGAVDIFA

[4] = target: T1, full-length wild-type FlhB (Salmonella enterica, UniProt P40727); assay: BLI; conditions: both partners purified
T1 construct: also called FlhB from pMM9; source: overproduced from pMM9, purified under nondenaturing conditions from solubilized crude membrane fractions
T1 sequence 1: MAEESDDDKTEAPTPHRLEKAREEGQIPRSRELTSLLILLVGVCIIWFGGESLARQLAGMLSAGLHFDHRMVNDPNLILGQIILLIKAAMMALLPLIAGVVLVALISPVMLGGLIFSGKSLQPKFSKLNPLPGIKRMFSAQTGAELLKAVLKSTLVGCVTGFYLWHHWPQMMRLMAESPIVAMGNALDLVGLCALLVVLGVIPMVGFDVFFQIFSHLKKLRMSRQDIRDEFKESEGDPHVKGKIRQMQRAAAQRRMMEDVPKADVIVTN
T1 sequence 2: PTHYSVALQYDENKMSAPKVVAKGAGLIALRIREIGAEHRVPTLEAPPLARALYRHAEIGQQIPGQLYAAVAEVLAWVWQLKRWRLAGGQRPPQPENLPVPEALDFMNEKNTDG

[5] = target: the molecule itself; assay: AUC; sedimentation equilibrium, buffer with 33 mM C8E5, scans at 280 nm; fit to a single-species model
FliI [6] = target: T2, FliI (UniProt P26465 1-456, biotin by amine crosslinking (NHS-LC-LC-biotin) when used as ligand); assay: BLI; FlhBC ligand on streptavidin sensors, FliI analyte 4, 2, 1, 0.5 and 0.25 uM without ATP; HBS-T, 25°C; global one-state association-then-dissociation model; conditions: both partners purified
T2 construct: source: E. coli BL21DE3(pLysS), purified (Talon IMAC, gel filtration into HBS-T)
T2 sequence: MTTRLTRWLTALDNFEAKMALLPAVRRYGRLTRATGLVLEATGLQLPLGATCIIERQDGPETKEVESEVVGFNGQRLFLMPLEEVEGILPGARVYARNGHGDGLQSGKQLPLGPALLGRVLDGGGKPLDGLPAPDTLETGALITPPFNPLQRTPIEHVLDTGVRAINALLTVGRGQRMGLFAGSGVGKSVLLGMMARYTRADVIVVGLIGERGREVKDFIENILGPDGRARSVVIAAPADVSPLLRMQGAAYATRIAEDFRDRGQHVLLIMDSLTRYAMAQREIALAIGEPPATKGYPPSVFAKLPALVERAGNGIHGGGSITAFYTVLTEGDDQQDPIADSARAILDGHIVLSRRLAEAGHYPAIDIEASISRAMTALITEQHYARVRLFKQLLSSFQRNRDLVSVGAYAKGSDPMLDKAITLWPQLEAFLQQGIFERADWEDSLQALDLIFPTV

FliI [7] = target: T2, FliI; assay: BLI; conditions: both partners purified

For FliK (from UniProt P26416), the Kd [1] is given as 3.2 µM.

“cytoplasmic domain of FlhB (FlhBC) (from UniProt P40727 212-383) (domain or fragment)” gave a Kd [2] of 1 µM, a koff [2] of 0.085 s⁻¹ and a kon [2] of 85000 M⁻¹ s⁻¹. For the same molecule, the Kd [3] was 1.1 µM, the koff, fast state of the global two-state dissociation fit [3] was 0.13 s⁻¹ and the koff, slow state of the global two-state dissociation fit [3] was 0.0047 s⁻¹. The KD of the initial binding event (FliK) was 8 µM, the Kd (FliK) was 2.1 µM and the k1 (observed rate constant of initial binding) at 1 uM FlhBC (FliK) was 0.05 s⁻¹. It also gave a k1 (observed rate constant of initial binding) at 2 uM FlhBC (FliK) of 0.1 s⁻¹, a k1 (observed rate constant of initial binding) at 3 uM FlhBC (FliK) of 0.2 s⁻¹ and a k1 (observed rate constant of initial binding) at 4 uM FlhBC (FliK) of 0.25 s⁻¹. It also gave a k1 (observed rate constant of initial binding) at 5 uM FlhBC (FliK) of 0.25 s⁻¹, a k2 (dissociation of AB to the free proteins), simulation at 1 uM FlhBC (FliK) of 0.44 s⁻¹ and a k2 (dissociation of AB to the free proteins), simulation at 2 uM FlhBC (FliK) of 0.44 s⁻¹. For the same molecule, the k2 (dissociation of AB to the free proteins), simulation at 3 uM FlhBC (FliK) was 0.44 s⁻¹, the k2 (dissociation of AB to the free proteins), simulation at 4 uM FlhBC (FliK) was 0.44 s⁻¹ and the k2 (dissociation of AB to the free proteins), simulation at 5 uM FlhBC (FliK) was 0.44 s⁻¹. For the same molecule, the k3 (shift from AB to AB*), simulation at 1 uM FlhBC (FliK) was 0.0085 s⁻¹, the k3 (shift from AB to AB*), simulation at 2 uM FlhBC (FliK) was 0.0085 s⁻¹ and the k3 (shift from AB to AB*), simulation at 3 uM FlhBC (FliK) was 0.0085 s⁻¹. It also gave a k3 (shift from AB to AB*), simulation at 4 uM FlhBC (FliK) of 0.0085 s⁻¹, a k3 (shift from AB to AB*), simulation at 5 uM FlhBC (FliK) of 0.0085 s⁻¹ and a k4 (shift from AB* to AB), simulation at 1 uM FlhBC (FliK) of 0.008 s⁻¹. It also gave a k4 (shift from AB* to AB), simulation at 2 uM FlhBC (FliK) of 0.008 s⁻¹, a k4 (shift from AB* to AB), simulation at 3 uM FlhBC (FliK) of 0.008 s⁻¹ and a k4 (shift from AB* to AB), simulation at 4 uM FlhBC (FliK) of 0.008 s⁻¹. The k4 (shift from AB* to AB), simulation at 5 uM FlhBC (FliK) was 0.008 s⁻¹, the koff of the initial binding event (FliK) was 0.44 s⁻¹ and the kon of the initial binding event (FliK) was 55000 M⁻¹ s⁻¹.

B1: FliH (natural protein)
chain: MSNELPWQVWTPDDLAPPPETFVPVEADNVTLTEDTPEPELTAEQQLEQELAQLKIQAHEQGYNAGLAEGRQKGHAQGYQEGLAQGLEQGQAQAQTQQAPIHARMQQLVSEFQNTLDALDSVIASRLMQMALEAARQVIGQTPAVDNSALIKQIQQLLQQEPLFSGKPQLRVHPDDLQRVEEMLGATLSLHGWRLRGDPTLHHGGCKVSADEGDLDASVATRWQELCRLAAPGVL
modifications: biotin by amine crosslinking (NHS-LC-LC-biotin) when used as ligand
notes: source: E. coli BL21DE3(pLysS), purified (Talon IMAC, gel filtration into HBS-T)
In the case of B1, the “KD with the 2 μM sample included” value [4] is reported as 0.9 µM and the Kd [4] is reported as 0.8 µM.

B2: full-length FlhB(N269A), uncleavable variant (natural protein)
chain: MAEESDDDKTEAPTPHRLEKAREEGQIPRSRELTSLLILLVGVCIIWFGGESLARQLAGMLSAGLHFDHRMVNDPNLILGQIILLIKAAMMALLPLIAGVVLVALISPVMLGGLIFSGKSLQPKFSKLNPLPGIKRMFSAQTGAELLKAVLKSTLVGCVTGFYLWHHWPQMMRLMAESPIVAMGNALDLVGLCALLVVLGVIPMVGFDVFFQIFSHLKKLRMSRQDIRDEFKESEGDPHVKGKIRQMQRAAAQRRMMEDVPKADVIVTAPTHYSVALQYDENKMSAPKVVAKGAGLIALRIREIGAEHRVPTLEAPPLARALYRHAEIGQQIPGQLYAAVAEVLAWVWQLKRWRLAGGQRPPQPENLPVPEALDFMNEKNTDG
For B2, the “stoichiometry N” value [5] was 2.

B3: cytoplasmic domain of FlhB (FlhBC) (domain or fragment)
chain: QIFSHLKKLRMSRQDIRDEFKESEGDPHVKGKIRQMQRAAAQRRMMEDVPKADVIVTNPTHYSVALQYDENKMSAPKVVAKGAGLIALRIREIGAEHRVPTLEAPPLARALYRHAEIGQQIPGQLYAAVAEVLAWVWQLKRWRLAGGQRPPQPENLPVPEALDFMNEKNTDG
modifications: biotin by amine crosslinking (NHS-LC-LC-biotin) when used as ligand
notes: as for B1
Work on B3 yielded a Kd (FliI [6]) of 0.084 µM, a koff (FliI [6]) of 0.0015 s⁻¹ and a kon (FliI [6]) of 18000 M⁻¹ s⁻¹. The Kd (FliI [7]) was 1.1 µM.
